Measurements reported in US20190263918A1 (SHANGHAI JIAO TONG UNIVERSITY SCHOOL OF MEDICINE, published 2019).

Biological target: T1, human FcγRIIA-R131 extracellular domain protein (human, UniProt P12318 34-217)
T1 construct: extracellular domain; SPR: His-tagged, immobilised; ELISA: biotinylated; also called hFcγRIIA-R131; CD32a
T1 sequence (looked up): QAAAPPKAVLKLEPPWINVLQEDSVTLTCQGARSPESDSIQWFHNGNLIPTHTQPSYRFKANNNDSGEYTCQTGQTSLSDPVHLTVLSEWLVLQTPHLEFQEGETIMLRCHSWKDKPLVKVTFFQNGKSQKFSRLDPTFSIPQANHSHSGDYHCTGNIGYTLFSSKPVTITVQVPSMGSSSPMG
Assay: ELISA, coated antibody, biotinylated FcγR extracellular domain
Description: The ELISA plate was coated with 100 μL antibody at an appropriate concentration overnight, supernatant being discarded. The plate was blocked with 1% BSA in PBS for 2 hours, followed by washing with PBST (PBS with 0.05% Tween 20). Then, biotinylated FcγR extracellular domain protein (Sino Biologic Inc., Beijing China) at a concentration as appropriate was added and incubated at room temperature for 1 hour, supernatant being discarded, followed by PBST wash. Streptavidin-HRP (BD Biosciences) was added and incubated at room temperature for 1 hour for detection of biotin protein. After removal of supernatant, developing solution was added to react for 20-40 minutes, and absorbance was determined at 650 nm (A650).

- binding result: no binding
B1: Anti-mCD40-hIgG2-NA (antibody)
heavy: EVQLVESDGGLVQPGRSLKLPCAASGFTFSDYYMAWVRQAPTKGLEWVASISYDGSSTYYRDSVKGRFTISRDNAKSTLYLQMDSLRSEDTATYYCGRHSSYFDYWGQGVMVTVSSASTKGPSVFPLAPCSRSTSESTAALGCLVKDYFPEPVTVSWNSGALTSGVHTFPAVLQSSGLYSLSSVVTVPSSNFGTQTYTCNVDHKPSNTKVDKTVERKCCVECPPCPAPPVAGPSVFLFPPKPKDTLMISRTPEVTCVVVDVSHEDPEVQFNWYVDGVEVHNAKTKPREEQFASTFRVVSVLTVVHQDWLNGKEYKCKVSNKGLPAPIEKTISKTKGQPREPQVYTLPPSREEMTKNQVSLTCLVKGFYPSDIAVEWESNGQPENNYKTTPPMLDSDGSFFLYSKLTVDKSRWQQGNVFSCSVMHEALHNHYTQKSLSLSPGK
light: DTVLTQSPALAVSPGERVTISCRASDSVSTLMHWYQQKPGQQPKLLIYLASHLESGVPARFSGSGSGTDFTLTIDPVEADDTATYYCQQSWNDPWTFGGGTKLELKRTVAAPSVFIFPPSDEQLKSGTASVVCLLNNFYPREAKVQWKVDNALQSGNSQESVTEQDSKDSTYSLSSTLTLSKADYEKHKVYACEVTHQGLSSPVTKSFNRGEC
notes: Chimeric anti-murine CD40 antibody, heavy chain constant region G2-NA (N297A)
